Results reported in publication PMC9482650, “Quantitative fragmentomics allow affinity mapping of interactomes” (Nature Communications, 2022).

T1: APBA1_1, Q02410
T1 sequence (Q02410 651-752, limits assumed, looked up): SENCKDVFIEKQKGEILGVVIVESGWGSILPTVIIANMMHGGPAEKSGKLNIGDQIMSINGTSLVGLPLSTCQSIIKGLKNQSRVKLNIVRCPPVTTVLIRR

T2: APBA1_2, Q02410
T2 sequence (Q02410 742-832, limits assumed, looked up): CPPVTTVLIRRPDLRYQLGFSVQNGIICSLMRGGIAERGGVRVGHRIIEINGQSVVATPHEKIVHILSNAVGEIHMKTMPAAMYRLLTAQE

T3: DFNB31_2, Q9P202
T3 sequence (Q9P202 274-371, limits assumed, looked up): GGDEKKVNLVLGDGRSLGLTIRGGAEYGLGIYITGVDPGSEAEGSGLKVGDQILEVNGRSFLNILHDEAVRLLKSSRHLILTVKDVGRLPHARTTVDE

T4: DLG3_3, Q92796
T4 sequence (Q92796 374-475, limits assumed, looked up): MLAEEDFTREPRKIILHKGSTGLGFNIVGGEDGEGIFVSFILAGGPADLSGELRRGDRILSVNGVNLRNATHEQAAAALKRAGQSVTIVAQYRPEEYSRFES

T5: GRIP1_4, Q9Y3R0
T5 sequence (Q9Y3R0 467-571, limits assumed, looked up): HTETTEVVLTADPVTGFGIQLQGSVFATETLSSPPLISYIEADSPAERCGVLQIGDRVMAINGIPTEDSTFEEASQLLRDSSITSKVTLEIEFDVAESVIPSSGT

T6: GRIP1_7, Q9Y3R0
T6 sequence (Q9Y3R0 999-1096, limits assumed, looked up): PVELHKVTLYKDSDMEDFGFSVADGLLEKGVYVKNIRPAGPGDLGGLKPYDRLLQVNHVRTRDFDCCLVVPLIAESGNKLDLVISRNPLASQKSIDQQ

T7: MPP7, Q5T2T1
T7 sequence (Q5T2T1 134-230, limits assumed, looked up): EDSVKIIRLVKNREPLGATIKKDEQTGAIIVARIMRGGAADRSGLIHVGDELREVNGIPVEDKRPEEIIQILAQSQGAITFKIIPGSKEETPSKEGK

T8: NHERF3_4, Q5T2W1
T8 sequence (Q5T2W1 373-468, limits assumed, looked up): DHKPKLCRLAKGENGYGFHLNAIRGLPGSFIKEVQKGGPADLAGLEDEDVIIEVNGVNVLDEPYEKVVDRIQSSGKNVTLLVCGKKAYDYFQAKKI

T9: PDZD2_2, O15018
T9 sequence (O15018 329-429, limits assumed, looked up): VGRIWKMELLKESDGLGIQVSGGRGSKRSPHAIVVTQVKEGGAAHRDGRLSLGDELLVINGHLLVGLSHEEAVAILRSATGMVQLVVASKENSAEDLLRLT

T10: RADIL, Q96JH8
T10 sequence (Q96JH8 971-1071, limits assumed, looked up): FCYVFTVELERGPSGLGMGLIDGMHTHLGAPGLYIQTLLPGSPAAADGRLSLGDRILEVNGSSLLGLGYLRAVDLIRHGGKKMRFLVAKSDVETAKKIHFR

T11: SNTG2, Q9NY99
T11 sequence (Q9NY99 68-166, limits assumed, looked up): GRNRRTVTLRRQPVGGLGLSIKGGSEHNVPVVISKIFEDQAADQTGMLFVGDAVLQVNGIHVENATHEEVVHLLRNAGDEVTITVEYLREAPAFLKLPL


Legend:
Assay in all cases: holdup assay
Parameters in all cases: key: below the threshold = too weak to quantify, mostly under pKd 3.1 to 4
Details in all cases: plain residues with an end cap or a label only (N-terminal biotin on a linker: ado-ado)
AHNAK1, Q09666 = target: AHNAK1, Q09666
AHNAK1, Q09666, sequence (Q09666 4-100): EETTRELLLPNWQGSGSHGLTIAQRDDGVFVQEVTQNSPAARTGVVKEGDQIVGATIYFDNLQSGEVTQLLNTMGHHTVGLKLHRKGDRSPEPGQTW

APBA1_1, Q02410 = target: T1, APBA1_1, Q02410
APBA1_2, Q02410 = target: T2, APBA1_2, Q02410
DFNB31_2, Q9P202 = target: T3, DFNB31_2, Q9P202
DLG1_2, Q12959 = target: DLG1_2, Q12959
DLG1_2, Q12959, sequence (Q12959 314-412): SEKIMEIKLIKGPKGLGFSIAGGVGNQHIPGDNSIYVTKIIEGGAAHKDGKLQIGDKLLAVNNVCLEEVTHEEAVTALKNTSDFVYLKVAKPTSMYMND

DLG1_3, Q12959 = target: DLG1_3, Q12959
DLG1_3, Q12959, sequence (Q12959 457-571): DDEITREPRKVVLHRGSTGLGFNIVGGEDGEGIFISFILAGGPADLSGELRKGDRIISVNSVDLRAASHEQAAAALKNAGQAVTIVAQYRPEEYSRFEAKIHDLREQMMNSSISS

DLG3_3, Q92796 = target: T4, DLG3_3, Q92796
FRMPD2_3, Q68DX3 = target: FRMPD2_3, Q68DX3
FRMPD2_3, Q68DX3, sequence (Q68DX3 1073-1166): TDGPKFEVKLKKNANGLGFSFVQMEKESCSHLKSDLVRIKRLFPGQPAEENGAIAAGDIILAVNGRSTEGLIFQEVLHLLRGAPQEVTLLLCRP

GRIP1_4, Q9Y3R0 = target: T5, GRIP1_4, Q9Y3R0
GRIP1_7, Q9Y3R0 = target: T6, GRIP1_7, Q9Y3R0
HTRA2, O43464 = target: HTRA2, O43464
HTRA2, O43464, sequence (O43464 355-458): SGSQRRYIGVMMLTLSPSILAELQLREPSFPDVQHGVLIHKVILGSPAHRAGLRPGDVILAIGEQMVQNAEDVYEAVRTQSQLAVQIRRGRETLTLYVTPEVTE

Inadl_2, Q8NI35 = target: Inadl_2, Q8NI35
Inadl_2, Q8NI35, sequence (Q8NI35 238-335): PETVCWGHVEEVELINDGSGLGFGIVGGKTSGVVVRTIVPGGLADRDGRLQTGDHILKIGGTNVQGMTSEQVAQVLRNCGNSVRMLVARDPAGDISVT

Inadl_3, Q8NI35 = target: Inadl_3, Q8NI35
Inadl_3, Q8NI35, sequence (Q8NI35 359-469): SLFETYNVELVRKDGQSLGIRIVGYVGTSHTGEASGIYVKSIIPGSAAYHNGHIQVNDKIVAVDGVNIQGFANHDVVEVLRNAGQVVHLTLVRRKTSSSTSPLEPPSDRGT

Inadl_5, Q8NI35 = target: Inadl_5, Q8NI35
Inadl_5, Q8NI35, sequence (Q8NI35 673-780): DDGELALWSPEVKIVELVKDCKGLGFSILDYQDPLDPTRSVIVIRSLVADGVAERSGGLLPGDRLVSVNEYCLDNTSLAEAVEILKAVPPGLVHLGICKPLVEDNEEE

Inadl_6, Q8NI35 = target: Inadl_6, Q8NI35
Inadl_6, Q8NI35, sequence (Q8NI35 1058-1167): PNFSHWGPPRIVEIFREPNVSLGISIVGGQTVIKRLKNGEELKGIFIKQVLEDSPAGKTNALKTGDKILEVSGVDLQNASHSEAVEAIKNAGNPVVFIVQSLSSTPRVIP

LNX1_2, Q8TBB1 = target: LNX1_2, Q8TBB1
LNX1_2, Q8TBB1, sequence (Q8TBB1 371-470): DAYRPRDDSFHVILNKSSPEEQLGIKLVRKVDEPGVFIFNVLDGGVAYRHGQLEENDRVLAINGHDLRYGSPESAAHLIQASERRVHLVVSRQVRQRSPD

LNX1_3, Q8TBB1 = target: LNX1_3, Q8TBB1
LNX1_3, Q8TBB1, sequence (Q8TBB1 500-596): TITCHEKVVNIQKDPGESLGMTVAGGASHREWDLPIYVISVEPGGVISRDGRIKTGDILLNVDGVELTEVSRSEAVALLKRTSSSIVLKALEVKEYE

MAGI3_2, Q5TCQ9 = target: MAGI3_2, Q5TCQ9
MAGI3_2, Q5TCQ9, sequence (Q5TCQ9 398-503): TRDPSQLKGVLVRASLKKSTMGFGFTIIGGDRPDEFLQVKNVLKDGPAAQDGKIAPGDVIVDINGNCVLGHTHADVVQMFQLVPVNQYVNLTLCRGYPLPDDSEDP

MPP7, Q5T2T1 = target: T7, MPP7, Q5T2T1
NHERF3_4, Q5T2W1 = target: T8, NHERF3_4, Q5T2W1
PDZD2_2, O15018 = target: T9, PDZD2_2, O15018
RADIL, Q96JH8 = target: T10, RADIL, Q96JH8
SCRIB_2, Q14160 = target: SCRIB_2, Q14160
SCRIB_2, Q14160, sequence (Q14160 857-960): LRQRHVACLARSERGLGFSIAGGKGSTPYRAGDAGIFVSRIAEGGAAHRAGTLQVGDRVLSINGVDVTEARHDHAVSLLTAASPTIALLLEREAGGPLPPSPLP

SNTG2, Q9NY99 = target: T11, SNTG2, Q9NY99
SNX27, Q96L92 = target: SNX27, Q96L92
TJP1_2, Q07157 = target: TJP1_2, Q07157
TJP1_2, Q07157, sequence (Q07157 181-274): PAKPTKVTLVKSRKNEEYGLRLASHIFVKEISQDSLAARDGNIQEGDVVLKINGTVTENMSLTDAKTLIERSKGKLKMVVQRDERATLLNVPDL

TJP1_3, Q07157 = target: TJP1_3, Q07157
TJP1_3, Q07157, sequence (Q07157 416-512): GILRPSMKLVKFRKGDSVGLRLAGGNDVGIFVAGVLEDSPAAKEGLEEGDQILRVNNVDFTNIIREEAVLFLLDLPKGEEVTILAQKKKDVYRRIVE

Binder	pKd (AHNAK1, Q09666)	pKd (APBA1_1, Q02410)	pKd (APBA1_2, Q02410)	pKd (DFNB31_2, Q9P202)	pKd (DLG1_2, Q12959)	pKd (DLG1_3, Q12959)	pKd (DLG3_3, Q92796)	pKd (FRMPD2_3, Q68DX3)	pKd (GRIP1_4, Q9Y3R0)	pKd (GRIP1_7, Q9Y3R0)	pKd (HTRA2, O43464)	pKd (Inadl_2, Q8NI35)	pKd (Inadl_3, Q8NI35)	pKd (Inadl_5, Q8NI35)	pKd (Inadl_6, Q8NI35)	pKd (LNX1_2, Q8TBB1)	pKd (LNX1_3, Q8TBB1)	pKd (MAGI3_2, Q5TCQ9)	pKd (MPP7, Q5T2T1)	pKd (NHERF3_4, Q5T2W1)	also measured
HLRQQGSVEV [EPHB6, O15197]	below the threshold	below the threshold	3.99	below the threshold	3.52	below the threshold	below the threshold	below the threshold	below the threshold	below the threshold	below the threshold	below the threshold	below the threshold	below the threshold	below the threshold	4.1	below the threshold	below the threshold	below the threshold	below the threshold	pKd (PDZD2_2, O15018): below the threshold; pKd (RADIL, Q96JH8): 3.74; pKd (SCRIB_2, Q14160): below the threshold; pKd (SNTG2, Q9NY99): below the threshold; pKd (SNX27, Q96L92): 3.76; pKd (TJP1_2, Q07157): below the threshold; pKd (TJP1_3, Q07157): below the threshold
FTLPAESSEI [PLEKHG7, Q6ZR37]	below the threshold	below the threshold	below the threshold	below the threshold	below the threshold	below the threshold	below the threshold	below the threshold	below the threshold	below the threshold	below the threshold	below the threshold	below the threshold	below the threshold	below the threshold	below the threshold	below the threshold	below the threshold	below the threshold	below the threshold	pKd (PDZD2_2, O15018): 5.12; pKd (RADIL, Q96JH8): below the threshold; pKd (SCRIB_2, Q14160): below the threshold; pKd (SNTG2, Q9NY99): below the threshold; pKd (SNX27, Q96L92): below the threshold; pKd (TJP1_2, Q07157): below the threshold; pKd (TJP1_3, Q07157): below the threshold
TGLWKSETTV [ADGRA2, Q96PE1]	below the threshold	below the threshold	3.57	below the threshold	5.26	4.38	4.47	below the threshold	below the threshold	below the threshold	below the threshold	below the threshold	3.97	below the threshold	below the threshold	3.89	below the threshold	5.6	below the threshold	below the threshold	pKd (PDZD2_2, O15018): 3.81; pKd (RADIL, Q96JH8): 3.95; pKd (SCRIB_2, Q14160): 4.31; pKd (SNTG2, Q9NY99): 4.14; pKd (SNX27, Q96L92): 5.4; pKd (TJP1_2, Q07157): 3.6; pKd (TJP1_3, Q07157): below the threshold
IPGKEFDTPL [PLCB1, Q9NQ66]	below the threshold	below the threshold	below the threshold	below the threshold	3.57	below the threshold	below the threshold	below the threshold	below the threshold	below the threshold	below the threshold	below the threshold	below the threshold	below the threshold	below the threshold	below the threshold	below the threshold	below the threshold	below the threshold	4.31	pKd (PDZD2_2, O15018): 3.62; pKd (RADIL, Q96JH8): below the threshold; pKd (SCRIB_2, Q14160): below the threshold; pKd (SNTG2, Q9NY99): below the threshold; pKd (SNX27, Q96L92): 5.17; pKd (TJP1_2, Q07157): below the threshold; pKd (TJP1_3, Q07157): below the threshold
NLQEHSTTSV [RSBN1, Q5VWQ0]	below the threshold	below the threshold	3.58	below the threshold	3.99	3.76	3.73	below the threshold	below the threshold	below the threshold	below the threshold	below the threshold	below the threshold	below the threshold	below the threshold	below the threshold	below the threshold	4.38	below the threshold	below the threshold	pKd (PDZD2_2, O15018): 4.52; pKd (RADIL, Q96JH8): below the threshold; pKd (SCRIB_2, Q14160): below the threshold; pKd (SNTG2, Q9NY99): below the threshold; pKd (SNX27, Q96L92): 5.48; pKd (TJP1_2, Q07157): below the threshold; pKd (TJP1_3, Q07157): below the threshold
